Data as given in article PMC2686087.

Assays:
[1] = target: CaV2.2/α2δ-2 calcium channel coexpressed with wild-type β2a (UniProt Q05152)
[2] = target: CaV2.2/α2δ-2 calcium channel coexpressed with β2a-SH3 (1–135) and β2a-GK (226–442) (UniProt Q05152)
[3] = target: CaV2.2/α2δ-2 calcium channel coexpressed with β2a-ΔvHOOK (UniProt Q05152)
[4] = target: CaV2.2/α2δ-2 calcium channel coexpressed with wild-type β2a (UniProt Q05152); remark: listed apart in the source

Gβγ (from UniProt P62873 1-340; P59768 1-71) (complex)
basal facilitation (P2/P1) ratio at +10 mV without agonist [1]: 1.43
basal facilitation (P2/P1) of peak IBa at +10 mV in the absence of agonist [2]: 2.61
time constant for the removal of tonic inhibition (τdissoc) at +120 mV [2]: 29.1 ms
dissociation rate of Gβγ at +120 mV (from τdissoc) [3]: 29.7 s⁻¹
time constant for rebinding of Gβγ at −100 mV (reinhibition after the prepulse) [3]: 296 ms
dissociation rate of Gβγ at +120 mV (from τdissoc) [4]: 46.9 s⁻¹
time constant for rebinding of Gβγ at −100 mV (reinhibition after the prepulse) [4]: 248 ms
